The results in this text go back to patent US20210206856A1 (PANDION OPERATIONS, published 2021).

Experiment [1] addresses T1, recombinant mouse MAdCAM-1 (mouse, UniProt Q61826 22-365, limits assumed).
T1 construct: also called mMAdCAM-1; mouse MAdCAM-Fc
T1 sequence (looked up): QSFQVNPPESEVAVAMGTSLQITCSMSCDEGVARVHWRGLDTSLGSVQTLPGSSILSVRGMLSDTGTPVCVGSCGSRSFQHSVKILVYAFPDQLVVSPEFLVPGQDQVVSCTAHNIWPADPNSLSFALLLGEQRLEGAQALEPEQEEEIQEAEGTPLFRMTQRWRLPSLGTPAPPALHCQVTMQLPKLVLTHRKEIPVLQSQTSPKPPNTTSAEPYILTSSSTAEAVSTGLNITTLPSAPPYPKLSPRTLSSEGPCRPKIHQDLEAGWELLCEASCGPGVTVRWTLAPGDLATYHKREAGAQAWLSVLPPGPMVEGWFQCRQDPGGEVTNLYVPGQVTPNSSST
The experiment in a line: Octet. (In general: BLI is a label-free optical method that tracks binding on a fibre tip over time.)

The target in experiment [2] is T2, mouse MAdCAM expressed on cells (mouse, UniProt Q61826 22-405).
T2 construct: whole, on cells
T2 sequence (looked up): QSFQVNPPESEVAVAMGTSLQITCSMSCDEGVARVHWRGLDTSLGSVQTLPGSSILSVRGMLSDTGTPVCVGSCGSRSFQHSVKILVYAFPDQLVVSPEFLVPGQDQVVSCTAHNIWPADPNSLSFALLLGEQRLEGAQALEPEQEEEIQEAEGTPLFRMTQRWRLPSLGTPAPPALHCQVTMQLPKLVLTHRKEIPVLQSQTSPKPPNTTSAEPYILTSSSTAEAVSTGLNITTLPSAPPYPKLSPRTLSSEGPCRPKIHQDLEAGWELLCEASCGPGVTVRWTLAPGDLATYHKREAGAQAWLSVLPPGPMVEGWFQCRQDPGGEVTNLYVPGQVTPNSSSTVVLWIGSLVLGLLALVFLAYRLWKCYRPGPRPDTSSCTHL
The experiment in a line: cell binding.

Experiment [3] has as its target T3, human MAdCAM expressed on cells (human, UniProt Q13477 19-382).
T3 construct: whole, on cells; also called MADCAM1
T3 sequence (looked up): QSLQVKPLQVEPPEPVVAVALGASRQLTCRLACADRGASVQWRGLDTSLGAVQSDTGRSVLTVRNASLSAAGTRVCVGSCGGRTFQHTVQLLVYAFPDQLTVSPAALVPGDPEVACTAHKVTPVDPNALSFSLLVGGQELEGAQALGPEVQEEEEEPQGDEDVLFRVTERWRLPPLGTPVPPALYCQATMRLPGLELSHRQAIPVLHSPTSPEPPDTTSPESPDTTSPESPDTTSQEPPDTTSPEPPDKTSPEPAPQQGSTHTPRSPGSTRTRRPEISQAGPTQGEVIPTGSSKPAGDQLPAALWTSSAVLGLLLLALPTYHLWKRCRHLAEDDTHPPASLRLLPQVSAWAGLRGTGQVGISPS
The experiment can be described thus: cell binding.

A further experiment deals with T4, mouse PD-1 on cells (mouse, UniProt Q02242 25-288).
T4 sequence (looked up): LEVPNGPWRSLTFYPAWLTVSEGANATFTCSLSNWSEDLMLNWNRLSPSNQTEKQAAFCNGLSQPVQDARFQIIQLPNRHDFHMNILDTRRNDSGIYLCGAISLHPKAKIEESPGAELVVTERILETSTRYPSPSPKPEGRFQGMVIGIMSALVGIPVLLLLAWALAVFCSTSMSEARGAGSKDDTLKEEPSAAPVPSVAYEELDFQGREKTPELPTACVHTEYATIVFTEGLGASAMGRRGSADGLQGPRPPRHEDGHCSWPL
The experiment in a line: cell-based or functional assay.

The target in the next experiment is T5, CD25 (Homo sapiens (Human), UniProt P01589 22-240).
T5 construct: also called IL-2R alpha chain
T5 sequence: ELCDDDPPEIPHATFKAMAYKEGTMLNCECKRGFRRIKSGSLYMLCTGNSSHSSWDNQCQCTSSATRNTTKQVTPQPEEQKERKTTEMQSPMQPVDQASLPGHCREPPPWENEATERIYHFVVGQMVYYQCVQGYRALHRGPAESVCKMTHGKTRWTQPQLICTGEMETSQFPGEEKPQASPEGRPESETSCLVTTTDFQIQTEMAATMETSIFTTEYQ
The experiment in a line: ELISA, CD25 coated plate.

B1: MAdCAM Antibody Table 2 Clone 74 (antibody, human IgG1, V domains shown)
VH: QVQLVQSGAEVKKPGASVKVSCKASGYTFTGYYMHWVRQAPGQGLEWMGIINPSGGNTKYAQKFQGRVTMTRDTSTSTVYMELSSLRSEDTAVYYCTTADYYYYMDVWGKGTTVTVSS
VL: DIQMTQSPSSLSASVGDRVTITCRASQGISNYLAWYQQKPGKAPKLLIYAASSLQSGVPSRFSGSGSGTDFTLTISSLQPEDFATYYCQQYYSNADFGQGTKVEIK
With B1, the binding result in experiment [1] is “no binding”; in experiment [2], “no binding”; in experiment [3] it was “binds”.

B2: PD1AB23 (antibody, IgG1, V domains shown)
VH: QVQLVQSGAEVKKPGASVKVSCKASGGTFSNYAISWVRQAPGQGLEWMGWMNPNSGNTGYAQKFQGRVTMTRDTSTSTVYMELSSLRSEDTAVYYCARVNYYYYYGMDVWGQGTTVTVSS
VL: DIQMTQSPSSLSASVGDRVTITCQASQDISNYLNWYQQKPGKAPKLLIYKASTLKSGVPSRFSGSGSGTDFTLTISSLQPEDFATYYCQQADNLPFTFGPGTKVDIK
B2: the “Mouse agonist-CTG: IC50, IgG1” value with mouse PD-1 on cells is less than 10 nM.

B3: human IL-2 mutein fused N-terminally to human IgG1 Fc domain (SEQ ID NO: 57) (Fc fusion)
chain: APTSSSTKKTQLQLEHLLLDLQMILNGINNYKNPKLTRMLTFKFYMPKKATELKHLQCLEEELKPLEEALNLAPSKNFHLRPRDLISDINVIVLELKGSETTFMCEYADETATIVEFLNRWITFSQSIISTLTGGGGSGGGGSGGGGSGGGGSDKTHTCPPCPAPEAAGAPSVFLFPPKPKDTLMISRTPEVTCVVVDVSHEDPEVKFNWYVDGVEVHNAKTKPREEQYNSTYRVVSVLTVLHQDWLNGKEYKCKVSNKALPAPIEKTISKAKGQPREPQVYTLPPSREEMTKNQVSLTCLVKGFYPSDIAVEWESNGQPENNYKTTPPVLDSDGSFFLYSKLTVDKSRWQQGNVFSCSVMHEALHNHYTQKSLSLSPG
notes: also called IL-2 N88D V69A, Q74P-G4Sx4-Fc
Take B3: in the experiment with CD25, the EC50 is less than 1 nM.

B4: IL-2 mutein SEQ ID NO: 54 (Fc fusion)
chain: APTSSSTKKTQLQLEHLLLDLQMILNGINNYKNPKLTRMLTFKFYMPKKATELKHIQCLEEELKPLEEALNLAPSKNFHLRPRDLISDINVIVLELKGSETTFMCEYADETATIVEFLNRWITFSQSIISTLTGGGGSGGGGSGGGGSGGGGSDKTHTCPPCPAPEAAGAPSVFLFPPKPKDTLMISRTPEVTCVVVDVSHEDPEVKFNWYVDGVEVHNAKTKPREEQYNSTYRVVSVLTVLHQDWLNGKEYKCKVSNKALPAPIEKTISKAKGQPREPQVYTLPPSREEMTKNQVSLTCLVKGFYPSDIAVEWESNGQPENNYKTTPPVLDSDGSFFLYSKLTVDKSRWQQGNVFSCSVMHEALHNHYTQKSLSLSPG
notes: also called IL-2 L56I N88D V69A, Q74P, C125S-G4Sx4-Fc
On to B4, for which, in the experiment with CD25, the EC50 is less than 1 nM.

B5: IL-2 mutein SEQ ID NO: 53 (Fc fusion)
chain: APTSSSTKKTQLQLEHLLLDLQMILNGINNYKNPKLTRMLTFKFYMPKKATEIKHLQCLEEELKPLEEALNLAPSKNFHLRPRDLISDINVIVLELKGSETTFMCEYADETATIVEFLNRWITFSQSIISTLTGGGGSGGGGSGGGGSGGGGSDKTHTCPPCPAPEAAGAPSVFLFPPKPKDTLMISRTPEVTCVVVDVSHEDPEVKFNWYVDGVEVHNAKTKPREEQYNSTYRVVSVLTVLHQDWLNGKEYKCKVSNKALPAPIEKTISKAKGQPREPQVYTLPPSREEMTKNQVSLTCLVKGFYPSDIAVEWESNGQPENNYKTTPPVLDSDGSFFLYSKLTVDKSRWQQGNVFSCSVMHEALHNHYTQKSLSLSPG
notes: also called IL-2 L53I N88D V69A, Q74P, C125S-G4Sx4-Fc
With B5, in the experiment with CD25, the EC50 is less than 1 nM.

B6: MAdCAM Antibody Table 2 Clone 46 (antibody, human IgG1, V domains shown)
VH: EVQLLESGGGLVQPGGSLRLSCAASGFSFSSYTMNWVRQAPGKGLEWVSFITSSSRTIYYADSVKGRFTISRDNSKNTLYLQMNSLRAEDTAVYYCARDRRGDYGDSWYFDLWGRGTLVTVSS
VL: EIVMTQSPATLSVSPGERATLSCRASQSVRNYLAWYQQKPGQAPRLLIYGASTRATGIPARFSGSGSGTEFTLTISSLQSEDFAVYYCQQYGSSPLTFGGGTKVEIK
Turning to B6, the binding result in experiment [1] is recorded as “no binding”; in experiment [2] it was “no binding”; in experiment [3] it was “binds”.

B7: PD1AB22 (antibody, IgG1, V domains shown)
VH: QVQLVQSGAEVKKPGASVKVSCKASGYTFSGYYMHWVRQAPGQGLEWMGVINPSGGSTSYAQKFQGRVTMTRDTSTSTVYMELSSLRSEDTAVYYCAEGFDYWGQGTLVTVSS
VL: EIVMTQSPATLSVSPGERATLSCRASQGVGRSLAWYQQKPGQAPRLLIYGASTRATGIPARFSGSGSGTEFTLTISSLQSEDFAVYYCQQYYTTPITFGQGTRLEIK
For B7, the “Mouse agonist-CTG: IC50, IgG1” value in the experiment with mouse PD-1 on cells was less than 10 nM.

B8: PD1AB4 (antibody, IgG1, V domains shown)
VH: QVQLVQSGAEVKKPGASVKVSCKASGYSFTTYYMHWVRQAPGQGLEWMGIINPSGGSTSYAQKFQGRVTMTRDTSTSTVYMELSSLRSEDTAVYYCASGWVYWGQGTLVTVSS
VL: DIQMTQSPSSLSASVGDRVTITCQASRDIKNYLAWYQQKPGKAPKLLIYAASSLQSGVPSRFSGSGSGTDFTLTISSLQPEDFATYYCQQSYSTPPTFGPGTKVDIK
Take B8: in the experiment with mouse PD-1 on cells, the “Mouse agonist-CTG: IC50, IgG1” value is less than 10 nM.

B9: PD1AB18 (antibody, IgG1, V domains shown)
VH: QVQLVQSGAEVKKPGASVKVSCKASGYTFTDYAMHWVRQAPGQGLEWMGWLNPNSGNTGYAPKFQGRVTMTRDTSTSTVYMELSSLRSEDTAVYYCAAGLFIWGQGTMVTVSS
VL: DIQMTQSPSSLSASVGDRVTITCRASQSINRWLAWYQQKPGKAPKLLIYDASSLESGVPSRFSGSGSGTDFTLTISSLQPEDFATYYCQQSYSIPITFGQGTRLEIK
Regarding B9, the “Mouse agonist-CTG: IC50, IgG1” value with mouse PD-1 on cells is less than 10 nM.

B10: MAdCAM Antibody Table 2 Clone 65 (antibody, human IgG1, V domains shown)
VH: QVQLVQSGAEVKKPGASVKVSCKASGYTFTSYDINWVRQAPGQGLEWMGWMNPNSGNTGYAQKFQGRVTMTRDTSTSTVYMELSSLRSEDTAVYYCAKDSDYSNLLWDYWGQGTLVTVSS
VL: DIQMTQSPSSLSASVGDRVTITCRASQDITNDLGWYQQKPGKAPKLLIYQASSLESGVPSRFSGSGSGTDFTLTISSLQPEDFATYYCQQSYTIPLTFGQGTKVEIK
As to B10, the values for the binding result in experiment [1], in experiment [2] and in experiment [3] were “no binding”, “no binding” and “binds”, respectively.

B11: PD1AB20 (antibody, IgG1, V domains shown)
VH: QVQLVQSGAEVKKPGASVKVSCKASGYTFSDHYMHWVRQAPGQGLEWMGTINPSGGRTSYAQKFQGRVTMTRDTSTSTVYMELSSLRSEDTAVYYCAADNGHASGWLYYYGMDVWGQGTTVTVSS
VL: DIQMTQSPSSLSASVGDRVTITCRASQSISNWVAWYQQKPGKAPKLLIYRASTLQSGVPSRFSGSGSGTDFTLTISSLQPEDFATYYCQQSHSLPLTFGPGTKVDIK
In the case of B11, the “Mouse agonist-CTG: IC50, IgG1” value in the experiment with mouse PD-1 on cells is less than 10 nM.

B12: PD1AB6 (antibody, IgG1, V domains shown)
VH: EVQLLESGGGLVQPGGSLRLSCAASGFTFSNYPMHWVRQAPGKGLEWVALISDDGTNEHYADSVKGRFTISRDNSKNTLYLQMNSLRAEDTAVYYCARDSKFANYYYYYDMDVWGQGTTVTVSS
VL: DIQMTQSPSSLSASVGDRVTITCRASQSINNYLSWYQQKPGKAPKLLIYDASNLETGVPSRFSGSGSGTDFTLTISSLQPEDFATYYCQQSYSTPLTFGPGTKVDIK
For the molecule B12, the “Mouse agonist-CTG: IC50, IgG1” value with mouse PD-1 on cells was less than 10 nM.

B13: PD1AB7 (antibody, IgG1, V domains shown)
VH: QVQLVQSGAEVKKPGASVKVSCKASGYSFTGHYIHWVRQAPGQGLEWMGIINPNGGSTTYAQKLQGRVTMTRDTSTSTVYMELSSLRSEDTAVYYCARGKFDFYGDYVTAFDIWGQGTMVTVSS
VL: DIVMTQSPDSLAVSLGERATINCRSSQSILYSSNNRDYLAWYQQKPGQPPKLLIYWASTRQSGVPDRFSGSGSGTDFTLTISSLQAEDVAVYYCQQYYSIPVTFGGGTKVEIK
As to B13, the “Mouse agonist-CTG: IC50, IgG1” value with mouse PD-1 on cells was less than 10 nM.

Usually EC50 stands for the midpoint of the concentration-response curve. A high value points to a need for much substance.
